Experimental findings from patent US20240052042A1 (Novartis, published 2024) are described below.

Like-named read-outs stand apart in the source and are kept apart here.

What is called EC50 (read off the curve) is the concentration needed to bring the measured effect to its halfway point.

Assay [1] deals with T1, human NPR1 on CHO-K1 cells in the presence of ANP (human, UniProt P01160 124-151).
T1 construct: also called hNPR1 CHO K1 + 100 nM ANP
T1 sequence: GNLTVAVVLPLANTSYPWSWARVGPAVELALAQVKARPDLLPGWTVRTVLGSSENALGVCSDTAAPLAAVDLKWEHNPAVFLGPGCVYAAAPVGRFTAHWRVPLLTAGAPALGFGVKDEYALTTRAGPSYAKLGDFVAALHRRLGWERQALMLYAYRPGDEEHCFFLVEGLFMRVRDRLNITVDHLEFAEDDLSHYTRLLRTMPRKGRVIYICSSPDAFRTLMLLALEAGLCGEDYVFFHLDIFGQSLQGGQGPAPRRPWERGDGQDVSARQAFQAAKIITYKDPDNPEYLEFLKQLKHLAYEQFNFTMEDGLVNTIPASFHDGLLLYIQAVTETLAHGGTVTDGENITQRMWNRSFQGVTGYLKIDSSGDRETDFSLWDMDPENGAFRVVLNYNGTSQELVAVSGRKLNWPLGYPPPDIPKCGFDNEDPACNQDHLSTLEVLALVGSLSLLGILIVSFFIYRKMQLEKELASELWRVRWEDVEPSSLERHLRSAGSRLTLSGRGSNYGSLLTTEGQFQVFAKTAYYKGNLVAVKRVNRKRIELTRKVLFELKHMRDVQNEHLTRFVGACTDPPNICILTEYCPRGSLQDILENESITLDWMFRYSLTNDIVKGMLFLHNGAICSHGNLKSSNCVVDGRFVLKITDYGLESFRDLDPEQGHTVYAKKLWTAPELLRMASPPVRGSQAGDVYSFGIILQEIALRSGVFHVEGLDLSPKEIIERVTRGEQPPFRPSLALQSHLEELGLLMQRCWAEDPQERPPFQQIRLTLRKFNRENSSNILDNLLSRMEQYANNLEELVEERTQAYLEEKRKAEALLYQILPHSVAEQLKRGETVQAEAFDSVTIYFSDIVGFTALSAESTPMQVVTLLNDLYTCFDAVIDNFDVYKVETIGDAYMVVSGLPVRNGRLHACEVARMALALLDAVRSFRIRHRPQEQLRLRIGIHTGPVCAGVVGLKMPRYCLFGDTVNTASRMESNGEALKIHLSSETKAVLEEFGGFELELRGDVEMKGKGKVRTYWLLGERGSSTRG
T1 sequence (peptide): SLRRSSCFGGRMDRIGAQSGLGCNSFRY
The experiment in a line: flow cytometry (FL2-H) on hNPR1 CHO-K1 cells with saturating ANP, IgG titrated; control parental CHO-K1 [Cont.), panel XX06]. (In general: Flow cytometry measures light scatter and fluorescence of single cells or particles in a stream.)

A further assay deals with T2, hNPR1-ANP complex (human, UniProt P01160 124-151, limits assumed).
T2 construct: hNPR1 antigen in the presence of ANP; also called hNPR1 + 100 nM ANP
T2 sequence: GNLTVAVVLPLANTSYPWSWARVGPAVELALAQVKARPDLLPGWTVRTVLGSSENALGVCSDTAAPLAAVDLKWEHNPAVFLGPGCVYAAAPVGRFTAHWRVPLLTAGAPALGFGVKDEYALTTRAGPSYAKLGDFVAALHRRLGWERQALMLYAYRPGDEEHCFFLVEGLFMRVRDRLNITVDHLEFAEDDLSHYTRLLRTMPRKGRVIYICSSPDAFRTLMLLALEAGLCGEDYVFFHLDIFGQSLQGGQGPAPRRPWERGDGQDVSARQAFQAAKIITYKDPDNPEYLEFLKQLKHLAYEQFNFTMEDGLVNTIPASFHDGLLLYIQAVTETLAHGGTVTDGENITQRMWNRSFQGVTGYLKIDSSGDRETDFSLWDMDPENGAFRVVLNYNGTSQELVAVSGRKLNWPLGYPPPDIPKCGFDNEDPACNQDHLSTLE
T2 sequence (peptide): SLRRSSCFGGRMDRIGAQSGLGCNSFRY
The experiment in a line: FRET ANP competition assay, IgG titrated on hNPR1 with Cy5-labeled ANP; negative values mean more ANP signal [Cont.), panel XX06]. The method, then:
The same 31 IgGs were tested for ANP competition using a Fluorescence Resonance Energy Transfer (FRET)-based assay in which the NPR1-specific antibodies competed with ANP for binding to NPR1. In this FRET based assay (see FIG. 3), Eu-labeled Streptavidin (for measurement of IgGs) or Eu-labeled anti-hFc antibody (for measurement of FabCys) was used as an energy donor, while Cy5-labeled ANP was used as an acceptor (for all measurements). The resulting fluorescent signal was decreased by ANP-competitive antibodies. The assay was performed as follows: antibodies were mixed with NPR1 and incubated for 5 minutes at room temperature. After addition of the Eu-labeled donor and incubation for 30 minutes at room temperature, the Cy5-ANP solution was added. After a further 60-minute incubation, readout was performed using a TECAN Infinite M1000 Pro using an excitation wavelength of 317 nm and an emission wavelength of 665 nm. Percentage of ANP competition was calculated according to the following formulae: […]

Assay [2] has as its target T3, human NPR3 in the presence of ANP (human, UniProt P17342 27-481; P01160 124-151, limits assumed).
T3 construct: also called hNPR3 + 100 nM ANP
T3 sequence (looked up): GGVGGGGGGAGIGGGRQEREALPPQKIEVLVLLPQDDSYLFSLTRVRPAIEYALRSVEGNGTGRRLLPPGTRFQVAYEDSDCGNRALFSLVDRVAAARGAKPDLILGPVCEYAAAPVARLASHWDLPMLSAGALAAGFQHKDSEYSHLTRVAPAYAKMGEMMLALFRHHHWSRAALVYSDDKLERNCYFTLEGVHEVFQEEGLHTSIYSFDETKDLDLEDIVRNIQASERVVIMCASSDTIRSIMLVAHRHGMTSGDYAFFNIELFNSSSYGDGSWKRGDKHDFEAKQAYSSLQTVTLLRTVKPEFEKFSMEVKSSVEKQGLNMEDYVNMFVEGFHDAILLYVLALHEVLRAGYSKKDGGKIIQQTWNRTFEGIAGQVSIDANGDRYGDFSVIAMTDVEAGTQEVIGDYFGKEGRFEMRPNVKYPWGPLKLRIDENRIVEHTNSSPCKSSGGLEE
T3 sequence (peptide, looked up): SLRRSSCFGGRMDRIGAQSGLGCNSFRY
As to the kind of experiment: ELISA, IgG titrated on coated antigen with ANP (250 fold molar excess), fluorescence [Cont.]. (In general: An ELISA detects its analyte on a solid surface through an enzyme-linked reagent.)

For assay [3], the target named is T4, human NPR3 (counter target) (human, UniProt P17342 27-481, limits assumed).
T4 construct: Pannings used hNPR3-hFc; also called hNPR3; hNPR3-hFc
T4 sequence (looked up): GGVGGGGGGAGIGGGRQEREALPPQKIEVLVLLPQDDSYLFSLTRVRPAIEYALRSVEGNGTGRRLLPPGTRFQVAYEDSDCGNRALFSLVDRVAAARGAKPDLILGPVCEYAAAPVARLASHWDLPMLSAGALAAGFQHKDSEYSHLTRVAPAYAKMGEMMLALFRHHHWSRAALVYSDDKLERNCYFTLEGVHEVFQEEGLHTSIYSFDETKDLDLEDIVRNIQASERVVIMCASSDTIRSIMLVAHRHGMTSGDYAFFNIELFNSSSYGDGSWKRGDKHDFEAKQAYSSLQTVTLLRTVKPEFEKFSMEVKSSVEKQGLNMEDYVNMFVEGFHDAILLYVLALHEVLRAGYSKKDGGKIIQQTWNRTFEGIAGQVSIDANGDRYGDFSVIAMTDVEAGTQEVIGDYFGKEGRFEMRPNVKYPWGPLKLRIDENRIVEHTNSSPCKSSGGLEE
The experiment in a line: ELISA, IgG titrated on coated antigen, fluorescence [Cont.]. The method, then:
Furthermore, the clones were tested via ELISA for binding to the following antigens: human NPR1, constitutively active human NPR1 mutant (W74R), rat NPR1, human NPR3 (counter target), each in the absence and presence of ANP, and BSA. The clones were also analyzed by flow cytometry for binding to human NPR1 expressing CHO K1 cells in absence and presence of ANP (100 nM) and to parental CHO K1 cells.

The target in assay [4] is T4, human NPR3 (counter target). The assay is described as above. The source holds these as a separate data set.
The target of assay [5] is T1, human NPR1 on CHO-K1 cells in the …. The experiment in a line: flow cytometry (FL2-H) on hNPR1 CHO-K1 cells with saturating ANP, IgG titrated; control parental CHO-K1 [panel XX03].
The target in assay [6] is T3, human NPR3 in the presence of ANP. As to the kind of experiment: ELISA, IgG titrated on coated antigen with ANP (250 fold molar excess), fluorescence [Cont.]. The source holds these as a separate data set.

B1: XX06 (IgG format) (antibody, V domains shown)
VH: QVQLLESGGGLVQPGGSLRLSCAASGFTFSSYWMNWVRQAPGKGLEWVSAISSDGSYTYYADSVKGRFTISRDNSKNTLYLQMNSLRAEDTAVYYCARDRYSMIYSYGAGAFDYWGQGTLVTVSS
VL: DIQMTQSPSSLSASVGDRVTITCRASQGISSYLAWYQQKPGKAPKLLIYTASTLQSGVPSRFSGSGSGTDFTLTISSLQPEDFATYYCQQTWRKPRTFGQGTKVEIK
Turning to B1, the “EC50 (read off the curve)” value in assay [1] was around 2 nM; with hNPR1-ANP complex it was around 0.2 nM. In addition, the binding result in assay [2] and in assay [3] was “no binding (tested: 200 nM)” in each case.

B2: XX03 (IgG format) (antibody, V domains shown)
VH: EVQLLESGGGLVQPGGSLRLSCAASGFTFSSYWMNWVRQAPGKGLEWVSVIESKGNYIFYADSVKGRFTISRDNSKNTLYLQMNSLRAEDTAVYYCARDRYSMIYSYGAGAFDYWGQGTLVTVSS
VL: DIQMTQSPSSLSASVGDRVTITCRASQGISSYLAWYQQKPGKAPKLLIYTASTLQSGVPSRFSGSGSGTDFTLTISSLQPEDFATYYCMQSYEKPRTFGQGTKVEIK
B2: the binding result in assay [4] and in assay [6] was “no binding (tested: 200 nM)” throughout. Also, the concentration for a half-maximal effect (EC50 (read off the curve)) in assay [5] was around 1 nM.
